Source: article PMC9001700
pKd: −log10 of the molar value. Like-named read-outs stand apart in the source and are kept apart here.

Key:
Assay in all cases: BLI
[1] = target: OC43 stem helix peptide (HCoV-OC43)
[2] = target: SARS-CoV-2 stem helix peptide 1145-[…]-1167 (SARS-CoV-2)
[3] = target: MERS-CoV stem helix peptide (MERS-CoV)
[4] = target: HKU1 stem helix peptide (HCoV-HKU1)
[5] = target: SARS-CoV-2 stem helix peptide 1145-1167 (SARS-CoV-2)
[6] = target: HCoV-HKU1 stem helix peptide (HCoV-HKU1)
[7] = target: MERS-CoV stem helix peptide (MERS-CoV); remark: listed apart in the source
[8] = target: HCoV-OC43 stem helix peptide (HCoV-OC43)

## CV3-25 Fab
[1]
  pKd: 7.41
  koff: 0.000613 s⁻¹
  kon: 17000 M⁻¹ s⁻¹
[2]
  pKd: 8.28
  koff: 0.000159 s⁻¹
  kon: 30000 M⁻¹ s⁻¹
[3]
  pKd: 7.69
  koff: 0.000669 s⁻¹
  kon: 33000 M⁻¹ s⁻¹
[4]
  pKd: 7.51
  koff: 0.000676 s⁻¹
  kon: 23000 M⁻¹ s⁻¹
[5]
  pKd: 8.28
[6]
  pKd: 7.51
[7]
  pKd: 7.70
[8]
  pKd: 7.40
